Assay results reported in PMC8178401.

Assays:
[1] = target: MsSepF_(core) (C-terminal FtsZ-binding core of Methanobrevibacter smithii SepF, residues 54-149) (Methanobrevibacter smithii); experiment: not stated; MsSepFcore in solution (Supplementary Fig. 6); method not given
[2] = target: MsSepF_(core) (C-terminal FtsZ-binding core of Methanobrevibacter smithii SepF, residues 54-149) (Methanobrevibacter smithii); experiment: SPR; Biacore T200, 25 °C, 150 mmol/L NaCl, 25 mmol/L Hepes pH 8; MsSepFcore amine-coupled on CM5 (3200 and 5000 RU), FtsZCTD peptide flowed over; steady-state fit; apparent Kd

Sequence of MsSepF_(core) (C-terminal FtsZ-binding core of Methanobrevibacter smithii SepF, residues 54-149) (Methanobrevibacter smithii) (main, as listed by the source): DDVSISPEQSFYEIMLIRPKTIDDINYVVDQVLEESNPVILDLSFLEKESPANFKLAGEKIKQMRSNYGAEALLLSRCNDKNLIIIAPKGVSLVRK

| stoichiometry N [1] | Kd [2] | Molecule |
| --- | --- | --- |
| 2 |  | MsSepF_(core) (C-terminal FtsZ-binding core of Methanobrevibacter smithii SepF, residues 54-149) (domain or fragment) |
|  | 84 µM | NEDQLDDFIDGIF [FtsZCTD peptide (C-terminal domain of Methanobrevibacter smithii FtsZ)] |
